Test results published in patent US7998940B2, “Aptamers to von Willebrand factor and their use as thrombotic disease therapeutics” (Archemix Corp., priority 2004, dated 2011).
Residue numbers refer to the chain shown, from its start. Read-outs that look alike come from different tables or passages of the source. Oligonucleotides are written 5' to 3', each unit as a sugar letter and its base; * is a phosphorothioate linkage, no mark a phosphodiester; rarer units and linkages stand in square brackets, end groups in braces. Plain capitals give the bases only. [invdT] = inverted (3'-3') thymidine; d = 2'-deoxy (DNA); m = 2'-O-methyl; r = 2'-OH (RNA); f = 2'-fluoro

How the values were obtained:
[1] = tested on: botrocetin induced platelet aggregation; experiment: Inhibition of botrocetin induced platelet aggregation (BIPA) in human PRP; format: cell-based; conditions: for IC90: human platelet rich plasma; for ≦200 nM aptamer gives >90% blocking in BIPA at 6 minutes: botrocetin induced platelet aggregation
In short: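 Fresh human platelet-rich plasma, prewarmed at 37 degrees C, was preincubated one minute with aptamer (zero, 1 nM to 1000 nM) before botrocetin at a per-donor titrated aggregating concentration. Aggregation was followed as light transmittance; the value is the concentration blocking aggregation by 90% or greater after 6 minutes.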

[2] = tested on: rabbit vWF A1 domain (SEQ ID NO 6); experiment: 3-point dot blot screen, rabbit vWF A1 domain; format: binding; conditions: for Screen Rabbit/No Protein: 3-point dot blot screen, 20 nM rabbit vWF A1 domain, ratio of fraction of aptamer bound with target protein to fraction bound without protein; for Screen- Rabbit/No Protein: 100 nM rabbit vWF A1 domain, ratio of fraction bound with target to without
Sequence of rabbit vWF A1 domain (SEQ ID NO 6) (as listed by the source): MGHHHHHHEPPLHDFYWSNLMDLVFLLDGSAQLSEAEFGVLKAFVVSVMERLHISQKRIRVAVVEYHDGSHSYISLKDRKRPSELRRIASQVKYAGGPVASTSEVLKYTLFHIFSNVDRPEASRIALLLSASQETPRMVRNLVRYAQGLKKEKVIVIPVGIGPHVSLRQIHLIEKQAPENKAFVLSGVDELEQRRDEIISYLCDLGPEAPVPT
In short: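 Rabbit vWF A1 domain binding was screened by dot blot using three conditions: no target protein, human vWF, and rabbit vWF A1 domain at 100 nM (20 nM in the screen run twice). Radiolabeled aptamer bound to nitrocellulose was quantified, and results are expressed as the ratio of bound fraction with protein to bound fraction without protein.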

[3] = biological target: T1, human vWF A1 domain (SEQ ID NO 5) (Homo sapiens, UniProt P04275, T1381A); experiment: dot blot KD determination, human vWF A1 domain
T1 sequence (P04275 with tags, fused parts or gaps T1381A): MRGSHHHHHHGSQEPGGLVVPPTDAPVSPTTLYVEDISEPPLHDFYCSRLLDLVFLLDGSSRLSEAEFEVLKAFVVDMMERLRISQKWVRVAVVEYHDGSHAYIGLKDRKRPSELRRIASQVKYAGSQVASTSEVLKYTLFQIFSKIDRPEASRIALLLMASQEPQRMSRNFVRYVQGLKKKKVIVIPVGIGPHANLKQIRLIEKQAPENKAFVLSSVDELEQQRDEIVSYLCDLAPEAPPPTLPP

[4] = biological target: T1, human vWF A1 domain (SEQ ID NO 5); experiment: 3-point dot blot screen, human vWF A1 domain; format: binding; conditions: 100 nM human vWF A1 domain
In short: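 Values are ratios of aptamer fraction retained on nitrocellulose with 100 nM vWF A1 domain (human or rabbit) versus a no-protein control. Unique clones from rounds 9 and 12 pools were transcribed, desalted and 5'-32P labeled before this three-point dot blot screen.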

[5] = read-out: Human A1 KD, rRdY aptamers, 6 point protein titration
[6] = rRdY aptamers, ratio of fraction bound with target to without

## PEG20K-NH2-mGmCmGmUdGdCdAmGmUmGmCmCmUmUmCmGmGmCdCmG-s-TmGdCdGdGTmGmCdCmUdCdCmGmUdCmAmCmGmC-3T [ARC1779]
[1]
  IC90: ~100 nM

## dGdGdCdGTdGdCdAdGTdGdCdCTTdCdGdGdCdCdGTdGdCdGdGTdGdCdCTdCdCdGTdCdAdCdGdCdC-3T (DNA GGCGTGCAGTGCCTTCGGCCGTGCGGTGCCTCCGTCACGCC; DNA, [invdT] at 3' end, backbone and methylation of C not given here) [ARC1172, ARC1115 with 3'-inverted dT]
[1]
  IC90: ~200 nM

## mGmCmGmUdGdCdAmGmUmGmCmCmUmUmCmGmGmCdCmG-s-TmGdCdGdGTmGmCdCmUdCdCmGmUdCmAmCmGmC-3T (GCGUGCAGUGCCUUCGGCCGTGCGGTGCCUCCGUCACGC; sugars from the 5' end mmmmdddmmmmmmmmmmmdmdmddddmmdmddmmdmmmm, [invdT] at 3' end, backbone not given here) [ARC1368]
[1]
  IC90: ~200 nM
[1]; in words, human PRP
  inhibition of botrocetin induced platelet aggregation: potency comparable to ReoPrO™

B1: AMX237.G6: DNA SELEX 2 aptamer clone (nucleic acid)
DNA: CTACCTACGATCTGACTAGCGTGCAGTGCCTATTCCAGGCCGTGCGGTGCCTCCGTCACGCTTACTCTCATGTAGTTCC
modifications: DNA, backbone and methylation of C not given here
notes: DNA SELEX 2 aptamer clone
[2]
  Screen Rabbit/No Protein: 3.63
[1]
  ≦200 nM aptamer gives >90% blocking in BIPA at 6 minutes: yes

B2: AMX201.C8: rRfY aptamer clone (nucleic acid)
chain: rGrGrArGfCrGfCrAfCfUfCrArGfCfCrAfCfCfCfUfCrGfCrArArGfCrAfUfUfUfUrArArGrArAfUrGrAfCfUfUrGfUrGfCfCrGfCfUrGrGfCfUrGfUfUfUfUfCrGrAfCfCfUfCfUfCfUrGfCfUrArGfC
[2]; rRfY aptamers
  Screen- Rabbit/No Protein: 1.50
[1]
  ≦200 nM aptamer gives >90% blocking in BIPA at 6 minutes: yes
[3]; read-out: human A1 KD, rRfY aptamers, 8 point titration of human vWF A1 domain
  Kd: 0.2 nM
[4]; rRfY aptamers, ratio of fraction bound with target to fraction bound without target
  Screen- Human/No Protein: 2.47

B3: AMX203.G9: rRdY aptamer clone (nucleic acid)
chain: rGrGrArGdCrGdCrAdCdTdCrArGdCdCrAdCrGrGrGrGdTrGrGrGdTrArGrAdCrGrGdCrGrGrGdTrAdTrGdTrGrGdCdTrGrGdTrGdTdCrGrArArGrGrGdTdTdTdCrGrAdCdCdTdCdTdCdTrGdCdTrArGdC
[2]; rRdY aptamers
  Screen- Rabbit/No Protein: 1.35
[1]
  ≦200 nM aptamer gives >90% blocking in BIPA at 6 minutes: yes
[3]; [5]
  Kd: 1.3 nM
[4]; [6]
  Screen- Human/No Protein: 1.65

B4: AMX206.D8: rRdY aptamer clone (nucleic acid)
chain: rGrGrArGdCrGdCrAdCdTdCrArGdCdCrAdCrGrAdCrGrGdTrGrAdTrGrGrAdTdTrArGdCrGdCrGrGdTrGrGrAdTdCdTdTrArAdCrGdTrGdCrGrArGdTdTdTdCrGrAdCdCdTdCdTdCdTrGdCdTrArGdC
[2]; rRdY aptamers
  Screen- Rabbit/No Protein: 3.76
[3]; [5]
  Kd: 370 nM
[4]; [6]
  Screen- Human/No Protein: 2.80

B5: AMX205.F7: rRdY aptamer clone (nucleic acid)
chain: rGrGrArGdCrGdCrAdCdTdCrArGdCdCrAdCrAdCrGrAdCrAdTdTrGrGdCrGrGrGdTdTrGdTrArAdTdTrAdCdCrAdCrGdCrAdTrGrGdCdTrGdTdTdTrGdTdTdTdCrGrAdCdCdTdCdTdCdTrGdCdTrArGdC
[2]; rRdY aptamers
  Screen- Rabbit/No Protein: 2.37
[1]
  ≦200 nM aptamer gives >90% blocking in BIPA at 6 minutes: yes
[3]; [5]
  Kd: 1.5 nM
[4]; [6]
  Screen- Human/No Protein: 3.13

B6: AMX205.H10: rRdY aptamer clone (nucleic acid)
chain: rGrGrArGdCrGdCrAdCdTdCrArGdCdCrAdCdTrGdTdTrGdCdCrGrAdCrGrGdTrGrAdTrGdTrAdTdTrArAdCrGdCrGrGrGdCrArAdCrGdTdTrGrGdTrGdTdTdTdCrGrAdCdCdTdCdTdCdTrGdCdTrArGdC
[2]; rRdY aptamers
  Screen- Rabbit/No Protein: 2.47
[3]; [5]
  Kd: 397 nM
[4]; [6]
  Screen- Human/No Protein: 1.88

B7: AMX237.A2: DNA SELEX 2 aptamer clone (nucleic acid)
chain: CTACCTACGATCTGACTAGCTCCAGTGTTTCATCCAATAACCGTGCGGTGCCTCCGTGAGCTTACTCTCATGTAGTTCC
modifications: DNA, backbone and methylation of C not given here
notes: DNA SELEX 2 aptamer clone
[2]
  Screen Rabbit/No Protein: 2.34

B8: AMX238.D12: DNA SELEX 2 aptamer clone (nucleic acid)
DNA: B7 chain with C34T
modifications: DNA, backbone and methylation of C not given here
notes: DNA SELEX 2 aptamer clone
[2]
  Screen Rabbit/No Protein: 2.19

B9: AMX238.G5: DNA SELEX 2 aptamer clone (nucleic acid)
DNA: B7 chain with C31T, C34T
modifications: DNA, backbone and methylation of C not given here
notes: DNA SELEX 2 aptamer clone
[2]
  Screen Rabbit/No Protein: 2.68

B10: AMX237.B11: DNA SELEX 2 aptamer clone (nucleic acid)
DNA: B7 chain with C31T, C35T
modifications: DNA, backbone and methylation of C not given here
notes: DNA SELEX 2 aptamer clone
[2]
  Screen Rabbit/No Protein: 2.57

B11: AMX237.A11: DNA SELEX 2 aptamer clone (nucleic acid)
chain: B7 chain with C31T
modifications: DNA, backbone and methylation of C not given here
notes: DNA SELEX 2 aptamer clone
[2]
  Screen Rabbit/No Protein: 2.38
